Measured values reported in US12404345B2, “Humanized antibodies against iRHOM2” (SCIRHOM GMBH, priority 2021, dated 2025).
Numbering of substitutions follows the chain as printed.

B1: 23-B-04: humanized antibody binding human iRhom2; HCVD SEQ ID NO 25, LCVD SEQ ID NO 29 (antibody, V domains shown)
VH: QVTLRESGPALVKPTQTLTLTCTFSGFSLSTFGMGVGWIRQPPGKALEWLAHIWWDDEKYYNSALKSRLTISKDTSKNQVVLTITNMDPVDTATYYCARISNYGSNYWYFNVWGQGTLVTVSS
VL: AIQLTQSPSSLSASVGDRVTITCRASSSVSYMYWYQQKPGKAPKVLIYDTSNLASGVPSRFSGSGSGTDYTLTISSLQPEDFATYYCQQWNAYPLTFGQGTKLEIK
modifications: antibody sequences
B2: 42-B-04: humanized antibody binding human iRhom2; HCVD SEQ ID NO 41, LCVD SEQ ID NO 45 (antibody, V domains shown)
VH: B1 VH with M34R, S101Q, N111D
VL: B1 VL with S28R, V29I, Y33F
modifications: antibody sequences
B3: 42-B-02: humanized antibody binding human iRhom2; HCVD SEQ ID NO 33, LCVD SEQ ID NO 37 (antibody, V domains shown)
VH: B1 VH with M34R, S101Q, N111D
VL: B1 VL with S28R, V29I, Y33F, A92S
modifications: antibody sequences
B4: 16-B-03: humanized antibody binding human iRhom2; HCVD SEQ ID NO 1, LCVD SEQ ID NO 5 (antibody, V domains shown)
VH: QVTLRESGPALVKPTQTLTLTCTFSGFSLSTFALGVGWIRQPPGKALEWLAHIWWDDDKYYNPALKSRLTISKDTSKNQVVLTITNMDPVDTATYYCARITTYYYGMDYWGQGTLVTVSS
VL: EIVMTQSPDFQSVTPKEKVTITCRASQSIGNHLHWYQQKPDASPKLLIKYASQSISGVPSRFSGSGSGTDFTLTINSLEAEDAATYFCQQSYQWPLTFGQGTKLEIK
modifications: antibody sequences
B5: 16-B-07: humanized antibody binding human iRhom2; HCVD SEQ ID NO 17, LCVD SEQ ID NO 21 (antibody, V domains shown)
VH: B4 VH with D57E
VL: B4 VL
modifications: antibody sequences
B6: 16-B-05: humanized antibody binding human iRhom2; HCVD SEQ ID NO 9, LCVD SEQ ID NO 13 (antibody, V domains shown)
VH: B4 VH with D57E
VL: B4 VL with Q93N
modifications: antibody sequences

Assays:
[1] = system: cynomolgus monkey iRhom1; assay: FACS binding on MEF-DKO-Cyno-iR1-FL-WT-T7 cells; conditions: antibody at 3 μg/ml
Text: (§1) Next, iRhom1/2−/− DKO MEFs stably expressing a tagged form of rhesus monkey, cynomolgus monkey, dog or rabbit iRhom2 were generated in order to determine cross-reactivity of the antibodies of the invention with the respective orthologue of iRhom2. iRhom1/2−/− DKO MEFs stably expressing a tagged form of rhesus monkey, cynomolgus monkey, dog or rabbit iRhom1 were generated to confirm specificity for iRhom2 versus iRhom1 of these species.
(§2) In brief, on day 1, Phoenix-ECO cells (American Type Culture Collection, USA) were seeded on 6-well tissue culture plates (Greiner, Germany) in standard growth medium at 8×10^5 cells per well and kept overnight at 37° C., 5% CO2. On day 2, the medium was replaced by fresh medium supplemented with chloroquine (Sigma-Aldrich, USA) at a final concentration of 25 μM. Applying the calcium phosphate method, cells were transfected with 2 μg/ml of pMSCV (Clontech, USA) empty vector, pMSCV-rhesus-iR2-FL-WT-T7 encoding rhesus monkey iRhom2 full length wild type C-terminally tagged with 3 consecutive copies of the T7 epitope, pMSCV-cyno-iR2-FL-WT-T7 encoding cynomolgus monkey iRhom2 full length wild type C-terminally tagged with 3 consecutive copies of the T7 epitope, pMSCV-dog-iR2-FL-WT-T7 encoding dog iRhom2 full length wild type C-terminally tagged with 3 consecutive copies of the T7 epitope or pMSCV-rabbit-iR2-FL-WT-T7 encoding rabbit iRhom2 full length wild type C-terminally tagged with 3 consecutive copies of the T7 epitope, respectively, and were kept at 37° C., 5% CO2. After 7 hours, the transfections were stopped by replacing cell supernatants with standard growth medium lacking chloroquine, and cells were incubated at 37° C., 5% CO2 to allow virus production overnight. In parallel, immortalized iRhom1/2−/− DKO MEFs as target cells for retroviral infection were seeded on 6-well tissue culture plates (Greiner, Germany) in standard growth medium at 1×10^5 cells per well and were also kept overnight at 37° C., 5% CO2. On day 3, the supernatants of Phoenix-ECO cells releasing pMSCV, pMSCV-rhesus-iR2-FL-WT-T7, pMSCV-cyno-iR2-FL-WT-T7, pMSCV-dog-iR2-FL-WT-T7 or pMSCV-rabbit-iR2-FL-WT-T7 ecotrophic virus, respectively were collected, filtered with 0.45 μm CA filters, and supplemented with 4 μg/ml of polybrene (Sigma-Aldrich, USA). Upon removal of medium from the immortalized iRhom1/2−/− DKO MEFs, the virus containing supernatants were added to the target cells for 4 hours at 37° C., 5% CO2 for first infection. Simultaneously, Phoenix-ECO cells were re-incubated with fresh medium, which, after another 4 hours, was filtered and used for the second infection of the respective target cell populations, again in the presence of 4 μg/ml of polybrene. Likewise, a third, but overnight infection cycle was performed. On day 4, virus containing cell supernatants were replaced by fresh standard growth medium. From day 5 onwards, cells were grown in the presence of 2 mg/ml of geneticin (G418, Thermo Fisher Scientific, USA) for the selection of immortalized MEF-DKO-EV control cells stably infected with pMSCV empty vector, pMSCV-rhesus-iR2-FL-WT-T7 cells stably expressing rhesus monkey iRhom2 full length wild type C-terminally tagged with 3 consecutive copies of the T7 epitope, pMSCV-cyno-iR2-FL-WT-T7 cells stably expressing cynomolgus monkey iRhom2 full length wild type C-terminally tagged with 3 consecutive copies of the T7 epitope, pMSCV-dog-iR2-FL-WT-T7 cells stably expressing dog iRhom2 full length wild type C-terminally tagged with 3 consecutive copies of the T7 epitope or pMSCV-rabbit-iR2-FL-WT-T7 cells stably expressing rabbit iRhom2 full length wild type C-terminally tagged with 3 consecutive copies of the T7 epitope, respectively. Upon propagation, cells were stocked for future usage. In parallel, iRhom1/2−/− DKO MEFs stably expressing a tagged form of rhesus monkey, cynomolgus monkey, dog or rabbit iRhom1 were generated in an analogous manner. […]

[2] = system: rabbit iRhom2; assay: FACS cross-reactivity on MEF-DKO-Rabbit-iR2-FL-WT-T7 cells; assay type: binding; conditions: antibody at 3 μg/ml
Text: as §1, §2

Molecule | binding to cynomolgus monkey iRhom1 on MEF-DKO-Cyno-iR1-FL-WT-T7 cells [1] | binding to rabbit iRhom2 on MEF-DKO-Rabbit-iR2-FL-WT-T7 cells [2]
B1 | do not recognize cynomolgus monkey iRhom1 | recognize rabbit iRhom2
B2 | do not recognize cynomolgus monkey iRhom1 | recognize rabbit iRhom2
B3 | do not recognize cynomolgus monkey iRhom1 | recognize rabbit iRhom2
B4 | no significant binding | Strong binding
B5 | do not recognize cynomolgus monkey iRhom1 | recognize rabbit iRhom2
B6 | do not recognize cynomolgus monkey iRhom1 | recognize rabbit iRhom2
